Experimental findings from patent US20140087995A1 (published 2014) are described below.

The target of the experiment is T1, human amylin receptor (amylin 3(a) receptor: human calcitonin receptor with RAMP-3) (human, UniProt P30988 25-474; O60896 24-148).
T1 construct: whole, on cells; also called hAmylin-R; hAmylinR
T1 sequence (looked up) 1: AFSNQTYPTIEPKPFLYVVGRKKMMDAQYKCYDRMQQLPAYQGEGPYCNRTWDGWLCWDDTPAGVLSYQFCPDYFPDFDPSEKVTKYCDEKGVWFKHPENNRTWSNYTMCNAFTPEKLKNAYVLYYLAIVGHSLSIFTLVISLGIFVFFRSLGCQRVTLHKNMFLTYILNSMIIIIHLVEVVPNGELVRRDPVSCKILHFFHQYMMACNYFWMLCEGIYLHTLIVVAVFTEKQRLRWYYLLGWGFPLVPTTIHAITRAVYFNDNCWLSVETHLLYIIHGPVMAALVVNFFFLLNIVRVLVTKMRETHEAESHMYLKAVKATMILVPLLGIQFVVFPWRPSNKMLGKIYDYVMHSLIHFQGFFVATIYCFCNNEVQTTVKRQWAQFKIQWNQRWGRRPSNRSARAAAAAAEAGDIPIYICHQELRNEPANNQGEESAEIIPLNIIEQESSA
T1 sequence (looked up) 2: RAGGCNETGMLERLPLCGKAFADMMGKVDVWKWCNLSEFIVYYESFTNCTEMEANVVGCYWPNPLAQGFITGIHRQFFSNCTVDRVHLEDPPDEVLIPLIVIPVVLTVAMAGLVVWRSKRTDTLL
The experiment in a line: SPA displacement of 125I-rat amylin, hAmylin 3(a) receptor membranes. Put shortly:
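One-site competition analysis of SPA counts yielded IC₅₀ as a measure of affinity. Membranes were at 35 ng/μL final; incubation was 120 min at 25° C, pH 7.4.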

Numbered stars: 1 amine (or outer) side, 2 acyl side, 3 side chain; on linkers, the order of the positions; unused ones are H or OH. Bridge positions count the residues as written; N and C are the ends. Side chains are listed from the residue outwards. Ends that are not written are not given here. * marks the point of attachment. C20 diacid = O=C(O)CCCCCCCCCCCCCCCCCCC(=O)*; γGlu = O=C(O)[C@H](CCC(=O)[*:2])N[*:1]

B1: N^ε1-[(4S)-4-carboxy-4-(19-carboxynonadecanoylamino)butanoyl]-[His14,Arg17,Pro21,Pro27,Arg34]-h-amylin (peptide)
peptide: K([γGlu-C20 diacid])CNTATCATQRLAHFLRHSSPNFGAIPSSTNVGRNTY-NH2
modifications: disulfide 2-7; N-terminus assumed
SMILES: CC[C@H](C)[C@H](NC(=O)[C@H](C)NC(=O)CNC(=O)[C@H](Cc1ccccc1)NC(=O)[C@H](CC(N)=O)NC(=O)[C@@H]1CCCN1C(=O)[C@H](CO)NC(=O)[C@H](CO)NC(=O)[C@H](Cc1c[nH]cn1)NC(=O)[C@H](CCCNC(=N)N)NC(=O)[C@H](CC(C)C)NC(=O)[C@H](Cc1ccccc1)NC(=O)[C@H](Cc1c[nH]cn1)NC(=O)[C@H](C)NC(=O)[C@H](CC(C)C)NC(=O)[C@H](CCCNC(=N)N)NC(=O)[C@H](CCC(N)=O)NC(=O)[C@@H](NC(=O)[C@H](C)NC(=O)[C@@H]1CSSC[C@H](NC(=O)[C@@H](N)CCCCNC(=O)CC[C@H](NC(=O)CCCCCCCCCCCCCCCCCCC(=O)O)C(=O)O)C(=O)N[C@@H](CC(N)=O)C(=O)N[C@@H]([C@@H](C)O)C(=O)N[C@@H](C)C(=O)N[C@@H]([C@@H](C)O)C(=O)N1)[C@@H](C)O)C(=O)N1CCC[C@H]1C(=O)N[C@@H](CO)C(=O)N[C@@H](CO)C(=O)N[C@H](C(=O)N[C@@H](CC(N)=O)C(=O)N[C@H](C(=O)NCC(=O)N[C@@H](CCCNC(=N)N)C(=O)N[C@@H](CC(N)=O)C(=O)N[C@H](C(=O)N[C@@H](Cc1ccc(O)cc1)C(N)=O)[C@@H](C)O)C(C)C)[C@@H](C)O
notes: also called 85; compound 85
For B1, the IC50 (in general, the midpoint of a concentration-inhibition curve) was 876 pM.

B2: N^ε1-[(4S)-4-carboxy-4-(19-carboxynonadecanoylamino)butanoyl]-[His14,Arg17,Pro21,Pro27,Pro31]-h-amylin (peptide)
peptide: K([γGlu-C20 diacid])CNTATCATQRLAHFLRHSSPNFGAIPSSTPVGSNTY-NH2
modifications: disulfide 2-7; N-terminus assumed
SMILES: CC[C@H](C)[C@H](NC(=O)[C@H](C)NC(=O)CNC(=O)[C@H](Cc1ccccc1)NC(=O)[C@H](CC(N)=O)NC(=O)[C@@H]1CCCN1C(=O)[C@H](CO)NC(=O)[C@H](CO)NC(=O)[C@H](Cc1c[nH]cn1)NC(=O)[C@H](CCCNC(=N)N)NC(=O)[C@H](CC(C)C)NC(=O)[C@H](Cc1ccccc1)NC(=O)[C@H](Cc1c[nH]cn1)NC(=O)[C@H](C)NC(=O)[C@H](CC(C)C)NC(=O)[C@H](CCCNC(=N)N)NC(=O)[C@H](CCC(N)=O)NC(=O)[C@@H](NC(=O)[C@H](C)NC(=O)[C@@H]1CSSC[C@H](NC(=O)[C@@H](N)CCCCNC(=O)CC[C@H](NC(=O)CCCCCCCCCCCCCCCCCCC(=O)O)C(=O)O)C(=O)N[C@@H](CC(N)=O)C(=O)N[C@@H]([C@@H](C)O)C(=O)N[C@@H](C)C(=O)N[C@@H]([C@@H](C)O)C(=O)N1)[C@@H](C)O)C(=O)N1CCC[C@H]1C(=O)N[C@@H](CO)C(=O)N[C@@H](CO)C(=O)N[C@H](C(=O)N1CCC[C@H]1C(=O)N[C@H](C(=O)NCC(=O)N[C@@H](CO)C(=O)N[C@@H](CC(N)=O)C(=O)N[C@H](C(=O)N[C@@H](Cc1ccc(O)cc1)C(N)=O)[C@@H](C)O)C(C)C)[C@@H](C)O
notes: also called 62; compound 62
Consider B2, for which the IC50 turned out to be 98 pM.

B3: N^ε1-[(4S)-4-carboxy-4-(19-carboxynonadecanoylamino)butanoyl]-[His14,Arg17,Pro21,Pro27]-h-amylin (peptide)
peptide: K([γGlu-C20 diacid])CNTATCATQRLAHFLRHSSPNFGAIPSSTNVGSNTY-NH2
modifications: disulfide 2-7; N-terminus assumed
SMILES: CC[C@H](C)[C@H](NC(=O)[C@H](C)NC(=O)CNC(=O)[C@H](Cc1ccccc1)NC(=O)[C@H](CC(N)=O)NC(=O)[C@@H]1CCCN1C(=O)[C@H](CO)NC(=O)[C@H](CO)NC(=O)[C@H](Cc1c[nH]cn1)NC(=O)[C@H](CCCNC(=N)N)NC(=O)[C@H](CC(C)C)NC(=O)[C@H](Cc1ccccc1)NC(=O)[C@H](Cc1c[nH]cn1)NC(=O)[C@H](C)NC(=O)[C@H](CC(C)C)NC(=O)[C@H](CCCNC(=N)N)NC(=O)[C@H](CCC(N)=O)NC(=O)[C@@H](NC(=O)[C@H](C)NC(=O)[C@@H]1CSSC[C@H](NC(=O)[C@@H](N)CCCCNC(=O)CC[C@H](NC(=O)CCCCCCCCCCCCCCCCCCC(=O)O)C(=O)O)C(=O)N[C@@H](CC(N)=O)C(=O)N[C@@H]([C@@H](C)O)C(=O)N[C@@H](C)C(=O)N[C@@H]([C@@H](C)O)C(=O)N1)[C@@H](C)O)C(=O)N1CCC[C@H]1C(=O)N[C@@H](CO)C(=O)N[C@@H](CO)C(=O)N[C@H](C(=O)N[C@@H](CC(N)=O)C(=O)N[C@H](C(=O)NCC(=O)N[C@@H](CO)C(=O)N[C@@H](CC(N)=O)C(=O)N[C@H](C(=O)N[C@@H](Cc1ccc(O)cc1)C(N)=O)[C@@H](C)O)C(C)C)[C@@H](C)O
notes: also called 70; compound 70
B3: the concentration for half-maximal inhibition (IC50) was found to be 169 pM.

B4: N^ε1-[(4S)-4-carboxy-4-[[(4S)-4-carboxy-4-(19-carboxynonadecanoylamino)butanoyl]amino]butanoyl]-[Arg17,Pro21,Pro27,His34]-h-amylin (peptide)
peptide: K([γGlu-γGlu-C20 diacid])CNTATCATQRLANFLRHSSPNFGAIPSSTNVGHNTY-NH2
modifications: disulfide 2-7; N-terminus assumed
SMILES: CC[C@H](C)[C@H](NC(=O)[C@H](C)NC(=O)CNC(=O)[C@H](Cc1ccccc1)NC(=O)[C@H](CC(N)=O)NC(=O)[C@@H]1CCCN1C(=O)[C@H](CO)NC(=O)[C@H](CO)NC(=O)[C@H](Cc1c[nH]cn1)NC(=O)[C@H](CCCNC(=N)N)NC(=O)[C@H](CC(C)C)NC(=O)[C@H](Cc1ccccc1)NC(=O)[C@H](CC(N)=O)NC(=O)[C@H](C)NC(=O)[C@H](CC(C)C)NC(=O)[C@H](CCCNC(=N)N)NC(=O)[C@H](CCC(N)=O)NC(=O)[C@@H](NC(=O)[C@H](C)NC(=O)[C@@H]1CSSC[C@H](NC(=O)[C@@H](N)CCCCNC(=O)CC[C@H](NC(=O)CC[C@H](NC(=O)CCCCCCCCCCCCCCCCCCC(=O)O)C(=O)O)C(=O)O)C(=O)N[C@@H](CC(N)=O)C(=O)N[C@@H]([C@@H](C)O)C(=O)N[C@@H](C)C(=O)N[C@@H]([C@@H](C)O)C(=O)N1)[C@@H](C)O)C(=O)N1CCC[C@H]1C(=O)N[C@@H](CO)C(=O)N[C@@H](CO)C(=O)N[C@H](C(=O)N[C@@H](CC(N)=O)C(=O)N[C@H](C(=O)NCC(=O)N[C@@H](Cc1c[nH]cn1)C(=O)N[C@@H](CC(N)=O)C(=O)N[C@H](C(=O)N[C@@H](Cc1ccc(O)cc1)C(N)=O)[C@@H](C)O)C(C)C)[C@@H](C)O
notes: also called 86; compound 86
As to B4, the IC50 turned out to be 833 pM.

B5: N^ε1-[(4S)-4-carboxy-4-(19-carboxynonadecanoylamino)butanoyl]-[His14,Arg17,Pro21,Pro27,His35]-h-amylin (peptide)
peptide: K([γGlu-C20 diacid])CNTATCATQRLAHFLRHSSPNFGAIPSSTNVGSHTY-NH2
modifications: disulfide 2-7; N-terminus assumed
SMILES: CC[C@H](C)[C@H](NC(=O)[C@H](C)NC(=O)CNC(=O)[C@H](Cc1ccccc1)NC(=O)[C@H](CC(N)=O)NC(=O)[C@@H]1CCCN1C(=O)[C@H](CO)NC(=O)[C@H](CO)NC(=O)[C@H](Cc1c[nH]cn1)NC(=O)[C@H](CCCNC(=N)N)NC(=O)[C@H](CC(C)C)NC(=O)[C@H](Cc1ccccc1)NC(=O)[C@H](Cc1c[nH]cn1)NC(=O)[C@H](C)NC(=O)[C@H](CC(C)C)NC(=O)[C@H](CCCNC(=N)N)NC(=O)[C@H](CCC(N)=O)NC(=O)[C@@H](NC(=O)[C@H](C)NC(=O)[C@@H]1CSSC[C@H](NC(=O)[C@@H](N)CCCCNC(=O)CC[C@H](NC(=O)CCCCCCCCCCCCCCCCCCC(=O)O)C(=O)O)C(=O)N[C@@H](CC(N)=O)C(=O)N[C@@H]([C@@H](C)O)C(=O)N[C@@H](C)C(=O)N[C@@H]([C@@H](C)O)C(=O)N1)[C@@H](C)O)C(=O)N1CCC[C@H]1C(=O)N[C@@H](CO)C(=O)N[C@@H](CO)C(=O)N[C@H](C(=O)N[C@@H](CC(N)=O)C(=O)N[C@H](C(=O)NCC(=O)N[C@@H](CO)C(=O)N[C@@H](Cc1c[nH]cn1)C(=O)N[C@H](C(=O)N[C@@H](Cc1ccc(O)cc1)C(N)=O)[C@@H](C)O)C(C)C)[C@@H](C)O
notes: also called 66; compound 66
As for B5, the IC50 came out at 396 pM.

B6: N^ε1-[(4S)-4-carboxy-4-(19-carboxynonadecanoylamino)butanoyl]-[His14,Arg17,Pro21,Pro27,His34]-h-amylin (peptide)
peptide: K([γGlu-C20 diacid])CNTATCATQRLAHFLRHSSPNFGAIPSSTNVGHNTY-NH2
modifications: disulfide 2-7; N-terminus assumed
SMILES: CC[C@H](C)[C@H](NC(=O)[C@H](C)NC(=O)CNC(=O)[C@H](Cc1ccccc1)NC(=O)[C@H](CC(N)=O)NC(=O)[C@@H]1CCCN1C(=O)[C@H](CO)NC(=O)[C@H](CO)NC(=O)[C@H](Cc1c[nH]cn1)NC(=O)[C@H](CCCNC(=N)N)NC(=O)[C@H](CC(C)C)NC(=O)[C@H](Cc1ccccc1)NC(=O)[C@H](Cc1c[nH]cn1)NC(=O)[C@H](C)NC(=O)[C@H](CC(C)C)NC(=O)[C@H](CCCNC(=N)N)NC(=O)[C@H](CCC(N)=O)NC(=O)[C@@H](NC(=O)[C@H](C)NC(=O)[C@@H]1CSSC[C@H](NC(=O)[C@@H](N)CCCCNC(=O)CC[C@H](NC(=O)CCCCCCCCCCCCCCCCCCC(=O)O)C(=O)O)C(=O)N[C@@H](CC(N)=O)C(=O)N[C@@H]([C@@H](C)O)C(=O)N[C@@H](C)C(=O)N[C@@H]([C@@H](C)O)C(=O)N1)[C@@H](C)O)C(=O)N1CCC[C@H]1C(=O)N[C@@H](CO)C(=O)N[C@@H](CO)C(=O)N[C@H](C(=O)N[C@@H](CC(N)=O)C(=O)N[C@H](C(=O)NCC(=O)N[C@@H](Cc1c[nH]cn1)C(=O)N[C@@H](CC(N)=O)C(=O)N[C@H](C(=O)N[C@@H](Cc1ccc(O)cc1)C(N)=O)[C@@H](C)O)C(C)C)[C@@H](C)O
notes: also called 81; compound 81
As for B6, the IC50 turned out to be 271 pM.
